The chains are these.
B1: TPR t1 (parent)
chain: GACCAAUCUGCCCUCAGAGCUCGAGAACAUCUUCGGAUGCAGAGGAGGCAGGCUUCGGUGGCGCGAUAGCGCCAACGUCCUCAACCUCCAAUGCAUCCCACCACAUGAUGAUGCCUGAAGAGCCUUGGUUUUUUG

The variants in this data set derive from B1. Nature of the data set: polymerase ribozyme fitness, log enrichment relative to wild type (log ratio); higher = more active; in vitro selection for triplet polymerase activity. The gist of the method: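 Each subunit of a heterodimeric triplet polymerase ribozyme was represented by a PCR-built, transcribed mutant library that underwent triplicate single-round in vitro selection with frozen incubation at −7 °C. Extended constructs were recovered by gel excision, streptavidin-bead capture and RT-PCR, and Illumina sequencing of input and output libraries kept genotypes with ≥10 input reads and ≥1 read per output. Fitness is the logarithm of genotype enrichment relative to wild-type enrichment, from inverse-variance-weighted replicate averages, with a logarithm base of 2.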
Consider G44U G110C, for which the “polymerase ribozyme fitness (log ratio)” value is -3.92.
The result for G45A C115G G127C reads -4.31.
As for G45C G60C C79A, the “polymerase ribozyme fitness (log ratio)” value was -1.42.
Next, G45C U55G G69U G107A: -5.92; G45U C49A U59C C97G: -5.1.
G45A U87G: the “polymerase ribozyme fitness (log ratio)” value was -0.388.
The result for G45U A46C A91C reads -2.71.
The result for G45A A46C C49U C101A U112G U131A reads -5.02; that for G44U G63A U78A G117C, -6.55.
Next, G44U C70A U129A U131A: -3.71; G44C C76U U81G: -5.45; G44C C94U: -1.02.
Take G45A A103C U106A C115G: the “polymerase ribozyme fitness (log ratio)” value was -5.5.
The result for G44C G57U G63U reads -2.08; that for G45C G48C C53G G107A A121G, -5.84; that for G45C C102G A121U U126G G128U, -4.67.
The result for G44U C73U G113C A121G G128A reads -4.53.
Next, G44C C88G: -2.18; G45A U59A C64U G128U: -2.82; G45U C53U: -2.81.
Take G45A G69U U78C U112C U129A: the “polymerase ribozyme fitness (log ratio)” value is 0.415.
For G45U C53U U130A, the “polymerase ribozyme fitness (log ratio)” value was -1.99.
The result for G44U C97G G113A reads -5.15; that for G44U C72G, -1.28; that for G44U G71A U130G, -3.31.
The result for G45A A74U U112G reads -0.353.
Next, G45U C49A: -0.895; G45A A46G A50C C89A: -3.72; G45U A105U: -3.16.
Turning to G45A C76U C86G, the “polymerase ribozyme fitness (log ratio)” value was -3.23.
Take G44C C70G: the “polymerase ribozyme fitness (log ratio)” value was -3.8.
Turning to G44U C56U U87C, the “polymerase ribozyme fitness (log ratio)” value is -1.16.
The result for G45A A95C A111U reads -3.67.
The result for G44C A50G A111U C123A G135U reads -5.29; that for G44C C62G U132A, -2.39.
Next, G44A U78C: -1.33; G44C G71U A108U G110C U125A: -6.18; G45C U133G G135U: -1.52.
On to G45A G61U U130G, for which the “polymerase ribozyme fitness (log ratio)” value was -0.472.
The result for G44C C98U reads -2.37; that for G45A G63A U67C C82U A84G U96A C98G C124U, -8.07.
Next, G45A A46U: -1.72; G44U C62A A90G: -2.16.
The result for G45A G51U G58U A74U C80A reads -0.751; that for G44C G61C U78C C98A G113U, -7.8; that for G45U A46U C56A G93A, -4.
G45A C79A G113U A118G: the “polymerase ribozyme fitness (log ratio)” value is -7.04.
Next, G44U C94A: -2.53; G44U C94G: -3.91.
G44U G69U: the “polymerase ribozyme fitness (log ratio)” value was -0.207.
Next, G44U U92A: -3.67; G45A A50G G52A G61U U131G: -3.62; G44C C62A G77A U133A: -4.24.
Take G44U C82U C89A C124A: the “polymerase ribozyme fitness (log ratio)” value stood at 1.91.
The result for G44C G69A U116C C123U reads -5.92.
The result for G44U G71C G93A reads -3.04; that for G45A C53U, -1.11.
Next, G45C G51U G71C: -4.44; G45A A108G: -2.36; G45C C56A C98U: -3.15.
For the variant G44C C53G, the “polymerase ribozyme fitness (log ratio)” value is -1.05.
The result for G45C G58A reads -0.146; that for G45A G51A C79A, -3.77; that for G45C U109C, -4.66.
Next, G45U A100C A111G A121G U125C: -1.08; G45A C70A C115A: -0.928.
As to G45C G128C, the “polymerase ribozyme fitness (log ratio)” value was -4.18.
G45U A83C G93U U116C C123G: the “polymerase ribozyme fitness (log ratio)” value was -4.31.
The result for G44U G52A reads -0.705; that for G44U C123A, 0.184; that for G45C G57C U59A G120A, -0.07.
In the case of G45C A50U, the “polymerase ribozyme fitness (log ratio)” value was -2.42.
The result for G44C C72A reads -0.169; that for G44U C98U, -2.19; that for G45A C72A G117U, -2.7.
With G45C A66U C79G C82U, the “polymerase ribozyme fitness (log ratio)” value was -3.83.
Next, G44U C79G A91C C115A: -5.13; G45C C115U: -3.17; G45C C56G C89A: -2.69.
Regarding G44C G47C G63C C89U U132A, the “polymerase ribozyme fitness (log ratio)” value is -4.25.
The result for G45A U54A G61C reads -0.932.
The result for G44U A46U C70U reads -3.55; that for G45A G63C, -0.827.
As to G45U A84C U96A G110A U131A, the “polymerase ribozyme fitness (log ratio)” value was -3.98.
Turning to G45A G52C C72A C123G, the “polymerase ribozyme fitness (log ratio)” value amounted to 0.812.
The result for G45A G48A G51U A83U U126G reads -5.24.
Next, G44U G61A C99U: -4.01; G44C C49A C101G U112G U131G: -4.71; G44U A95C: -2.44.
Next, G45A C70U: -1.29; G44U C70A C73U: -2.95; G45U C49A C88U A105U G128A: -4.94.
On to G45C G48C, for which the “polymerase ribozyme fitness (log ratio)” value was -2.05.
Next, G44C C64U A111G U133A: -0.585; G45C C99U: -4.05.
Next, G44U C73G C102U C124G: -1.03; G44C C53A C88U A100U: -0.527.
With G44C G52A G127A, the “polymerase ribozyme fitness (log ratio)” value is -3.02.
The result for G44C G61A A95U G110A reads -1.72.
Next, G44C C53U C86A A95U C101U: -3.19; G44C G71A: -1.25; G44C A84U: -1.11.
Turning to G44C A84C, the “polymerase ribozyme fitness (log ratio)” value is -0.969.
Consider G44C A74U, for which the “polymerase ribozyme fitness (log ratio)” value was -1.2.
The result for G45A A50G G93C reads -1.62.
Next, G44C C114A: -2.01; G45A C89U: -1.44.
The result for G44U G93U G117A reads -3.24; that for G44U G71C, -2.58.
Regarding G44C G63A, the “polymerase ribozyme fitness (log ratio)” value came out at 0.0487.
The result for G45U A46G G69A U106A reads -3.18.
Next, G44U A91C G93A: -1.99.
As for G45C C82A C101U, the “polymerase ribozyme fitness (log ratio)” value is -2.68.
For the variant G45A A50C, the “polymerase ribozyme fitness (log ratio)” value was -1.09.
The result for G45A A74G C115G G127C reads -4.14; that for G44U G61U A111U, -3.66.
The result for G45A G60A G110C reads -4.86; that for G45A U106A A111G, -1.55; that for G45C A84G U87G, -3.02.
The result for G44C U54A C82U C114G reads -4.01.
On to G44C C86G, for which the “polymerase ribozyme fitness (log ratio)” value is -1.54.
Next, G44U G120U: -0.505; G45A U112A: 1.41; G45C G58A A121C: 0.614.
The result for G44C G47C C49U C97A C123U reads -6.09.
As for G44U G117U, the “polymerase ribozyme fitness (log ratio)” value was -3.54.
As for G44U C56A C102U, the “polymerase ribozyme fitness (log ratio)” value was -3.03.
The result for G44U C98U U125G G127U reads -3.43; that for G44C G61U C102A, -2.81; that for G44C C53U C56U C115U G117U G135A, -3.91.
With G45A C73A U133G, the “polymerase ribozyme fitness (log ratio)” value was -0.489.
Next, G44U G48A C86U U92A: -4.3.
Next, G44U C49A G110A: -3.22; G44U U78C A108G: -4.95; G45A G61C U81G: -6.11.
Consider G45C C49U C56G A121C, for which the “polymerase ribozyme fitness (log ratio)” value is -0.675.
Next, G45A U87C C97A: -3.81.
Next, G44U U54A U55C: -2.01; G45C G71A C73U C86A U109A: -6.99.
Take G44C A91G: the “polymerase ribozyme fitness (log ratio)” value is -1.82.
Take G44U C62A C101G: the “polymerase ribozyme fitness (log ratio)” value was -4.35.
Next, G44U G45U G60C C101U A121G U131C: -0.695.
Turning to G44U C70U, the “polymerase ribozyme fitness (log ratio)” value was -2.01.
In the case of G44U G63C C72U A111U, the “polymerase ribozyme fitness (log ratio)” value was -5.44.
Next, G45C A100G G120C: -3.59; G45A C101A: -1.74.
With G44C G61C A100C U106A, the “polymerase ribozyme fitness (log ratio)” value is -4.28.
The result for G45A C49A reads -0.473.
Next, G45C G65U G71A A74G: -5.88; G45A C102U G120C: -1.47.
Next, G44C A46C U54A C88G C97U G113C: -3.49; G44C U55C: -1.02; G44C C53G C73U C82U C99G C124G: -7.17.
For the variant G44U A84C A91C, the “polymerase ribozyme fitness (log ratio)” value was -1.65.
Next, G45A A111C: -0.541; G44C G51U G60U C123U: -2.6.
The result for G44C C56U C88U C101U G110U reads -3.38.
On to G45A G58A A111C A118C, for which the “polymerase ribozyme fitness (log ratio)” value was -0.455.
In the case of G44C G61C, the “polymerase ribozyme fitness (log ratio)” value was -3.07.
As for G44U A84U A118G, the “polymerase ribozyme fitness (log ratio)” value is -2.17.
Next, G45A G93C: -1.29; G45A G93U: -1.91.
Next, G45C C49G U59G C89U: -3.44; G44U G77A C101A: -1.37; G44U G52C C82G G113A C124U: -3.3.
Take G45A G63C C82U: the “polymerase ribozyme fitness (log ratio)” value was -0.994.
The result for G45A C70G C85A reads -4.9.

(Values after the RNAGym collection of RNA variant scans (doi:10.1073/pnas.2313332121).)
